Test results published in patent US5939560A, “Inhibitors of DP-mediated processes, compositions and therapeutic methods thereof” (Ferring B.V., priority 1993, dated 1999).

Substrate: C[C@H](N)C(=O)N1CCC[C@H]1C(=O)Nc1ccc2c(C(F)(F)F)cc(=O)oc2c1
Test: purified protein, by the assay type
Conditions: other: substrate of DP-IV assay
Description: All compounds were tested in vitro against pure human DP-IV (purchased from M & E, Copenhagen, Denmark). […] Ki values were determined using Dixon plots.

B1: pure human DP-IV (Homo sapiens) (protein)
chain: MKTPWKVLLGLLGAAALVTIITVPVVLLNKGTDDATADSRKTYTLTDYLKNTYRLKLYSLRWISDHEYLYKQENNILVFNAEYGNSSVFLENSTFDEFGHSINDYSISPDGQFILLEYNYVKQWRHSYTASYDIYDLNKRQLITEERIPNNTQWVTWSPVGHKLAYVWNNDIYVKIEPNLPSYRITWTGKEDIIYNGITDWVYEEEVFSAYSALWWSPNGTFLAYAQFNDTEVPLIEYSFYSDESLQYPKTVRVPYPKAGAVNPTVKFFVVNTDSLSSVTNATSIQITAPASMLIGDHYLCDVTWATQERISLQWLRRIQNYSVMDICDYDESSGRWNCLVARQHIEMSTTGWVGRFRPSEPHFTLDGNSFYKIISNEEGYRHICYFQIDKKDCTFITKGTWEVIGIEALTSDYLYYISNEYKGMPGGRNLYKIQLSDYTKVTCLSCELNPERCQYYSVSFSKEAKYYQLRCSGPGLPLYTLHSSVNDKGLRVLEDNSALDKMLQNVQMPSKKLDFIILNETKFWYQMILPPHFDKSKKYPLLLDVYAGPCSQKADTVFRLNWATYLASTENIIVASFDGRGSGYQGDKIMHAINRRLGTFEVEDQIEAARQFSKMGFVDNKRIAIWGWSYGGYVTSMVLGSGSGVFKCGIAVAPVSRWEYYDSVYTERYMGLPTPEDNLDHYRNSTVMSRAENFKQVEYLLIHGTADDNVHFQQSAQISKALVDVGVDFQAMWYTDEDHGIASSTAHQHIYTHMSHFIKQCFSLP
With B1 the Km was 0.8 µM.
